Measured values: patent US6995019B2, “Fluorescent isothiocyanate (fitc) sinistrin, its production and use” (priority 2000, dated 2006)

Experiments:
[1] = background statement on prior art; cited from earlier work
[2] = background statement on prior art; cited from earlier work; remark: listed apart in the source

Row | Substance | fluorescence (presence of substance) in lung, liver and kidney sections (rat, 30 mg per kg at intervals of 2 days, sacrificed 4 hours after last administration) | effect of deposition in the liver (rat, liver, substance found mainly intracellularly) | effect of deposition in the lung (rat, lung, substance found in the corpuscles) | fluorescence (accumulation) in liver, lung and kidneys (rats sacrificed 6 minutes after the injection, rinsed with saline solution) | solubility in water [1] | blood pressure after injection into an experimental animal [2]
1 | FITC-inulin | considerable fluorescence is observed | irreversible cell damage (cell death) | leads to microstenoses and ultimately to embolism | accumulates in the liver, lung and kidneys | only very slightly soluble in water | transient reduction in blood pressure
2 | inulin |  |  |  |  | only very slightly soluble in water | transient reduction in blood pressure
